One data set deals with T1, MBP-fused CMD1 (Chlamydomonas reinhardtii, UniProt A0A2K3D5Z7).
T1 construct: full-length CMD1 with N-terminal MBP via alpha-helical linker and C-terminal His6, tags kept; expressed in E. coli; residues 509-532 disordered in apo crystal, C-terminal region partly degraded in crystals
As to the kind of experiment: X-ray crystal structure, crystals soaked with sodium L-ascorbate. In kind it is binding. Particulars: Fe2+ in active site; pH 5.0-5.6 citrate; 400 mM soak; binary complex 7CY5 (2.20 A) and ternary complex with 5mC-DNA 7CY8 (2.40 A); lactone form, monodentate via C2-hydroxyl.

Data set [1] has as its target T2, CMD1 (UniProt A0A2K3D5Z7 1-532). As to the kind of experiment: BLI; range over dsDNA1-4; BLI: 20 mM Tris-HCl pH 8.0, 50 mM NaCl, 0.1% Tween-20, 0.5% BSA, 25 C; biotin-DNA on streptavidin sensors, 1:1 fit. The settings on record: protein: recombinant; tags: His6-SUMO, cleaved with ULP1; label: 5'-biotin. On the technique in general: BLI is a label-free optical method that tracks binding on a fibre tip over time.

Data set [2] deals with T2, CMD1. As to the kind of experiment: BLI; BLI: 20 mM Tris-HCl pH 8.0, 50 mM NaCl, 0.1% Tween-20, 0.5% BSA, 25 C; biotin-DNA on streptavidin sensors, 1:1 fit. Particulars: protein: recombinant, tags: His6-SUMO, cleaved with ULP1, label: 5'-biotin.
For data set [3], the target named is T2, CMD1. Kind of data set: BLI; range over six structured DNAs; BLI: 20 mM Tris-HCl pH 8.0, 50 mM NaCl, 0.1% Tween-20, 0.5% BSA, 25 C; biotin-DNA on streptavidin sensors, 1:1 fit. Particulars: protein: recombinant, tags: His6-SUMO, cleaved with ULP1, label: 5'-biotin.
Data set [4] has as its target T2, CMD1. Kind of data set: BLI; range over dsDNA7-9; BLI: 20 mM Tris-HCl pH 8.0, 50 mM NaCl, 0.1% Tween-20, 0.5% BSA, 25 C; biotin-DNA on streptavidin sensors, 1:1 fit. The settings on record: protein: recombinant; tags: His6-SUMO, cleaved with ULP1; label: 5'-biotin.
For data set [5], the target named is T2, CMD1. As to the kind of experiment: BLI; range over dsDNA5-6; BLI: 20 mM Tris-HCl pH 8.0, 50 mM NaCl, 0.1% Tween-20, 0.5% BSA, 25 C; biotin-DNA on streptavidin sensors, 1:1 fit. Particulars: protein: recombinant; tags: His6-SUMO, cleaved with ULP1; label: 5'-biotin.
Data set [6] addresses T3, MBP-CMD1 (UniProt A0A2K3D5Z7 1-532). Kind of data set: crystal structure; Fe2+; BLI: 20 mM Tris-HCl pH 8.0, 50 mM NaCl, 0.1% Tween-20, 0.5% BSA, 25 C; biotin-DNA on streptavidin sensors, 1:1 fit. Particulars: protein: recombinant; tags: N-terminal MBP via alpha-helical linker; C-terminal His6; 10 bp palindromic duplex, 3' overhang 4 nt on both strands.
Data set [7] concerns the target T3, MBP-CMD1. Kind of data set: BLI; BLI: 20 mM Tris-HCl pH 8.0, 50 mM NaCl, 0.1% Tween-20, 0.5% BSA, 25 C; biotin-DNA on streptavidin sensors, 1:1 fit. Particulars: protein: recombinant; tags: N-terminal MBP via alpha-helical linker; C-terminal His6; label: 5'-biotin; 10 bp palindromic duplex, 3' overhang 4 nt on both strands.

T2 sequence (A0A2K3D5Z7 whole entry): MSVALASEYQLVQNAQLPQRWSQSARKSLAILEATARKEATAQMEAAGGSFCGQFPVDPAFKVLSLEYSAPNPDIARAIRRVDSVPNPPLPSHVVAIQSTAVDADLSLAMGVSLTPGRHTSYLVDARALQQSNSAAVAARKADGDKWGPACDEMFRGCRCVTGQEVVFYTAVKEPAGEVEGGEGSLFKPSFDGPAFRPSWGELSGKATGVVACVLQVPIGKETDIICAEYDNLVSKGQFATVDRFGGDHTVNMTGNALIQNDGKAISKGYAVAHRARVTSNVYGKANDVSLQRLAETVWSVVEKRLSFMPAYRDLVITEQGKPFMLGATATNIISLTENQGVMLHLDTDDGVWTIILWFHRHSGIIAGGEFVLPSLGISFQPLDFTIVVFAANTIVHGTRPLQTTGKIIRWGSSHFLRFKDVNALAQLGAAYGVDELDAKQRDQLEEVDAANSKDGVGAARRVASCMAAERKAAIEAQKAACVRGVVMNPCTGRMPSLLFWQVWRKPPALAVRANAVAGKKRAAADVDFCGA
T3 sequence (A0A2K3D5Z7 whole entry): as above
T1 sequence (A0A2K3D5Z7 whole entry, the tested form may be a part): as the sequence (A0A2K3D5Z7 whole entry) above

Take `O=C1O[C@H]([C@@H](O)CO)C(O)=C1O` [VC]: the “X-ray crystal structure, crystals soaked with sodium L-ascorbate” value on MBP-fused CMD1 was “crystals of CMD1 in complex with VC were obtained by soaking the apo CMD1 crystals”.

B1: dsDNA4 (40 bp, GC-rich) (dsDNA)
DNA 1: GACATCGGCGCGGGGTTCAGCCCCGGCCGTATTGGGGCTC
DNA 2: GAGCCCCAATACGGCCGGGGCTGAACCCCGCGCCGATGTC
As a reminder, the Kd is a measure of binding affinity in units of concentration. Take B1: in the data set with CMD1 [1], the Kd was ~2220 nM.

As to TTTTTTCTTTTTTCTTTTTTCTTTTTTCTTTTTTCTTTTT (ssDNA) [ssDNA (40 nt)], in the data set with CMD1 [2], the Kd amounted to 2770 nM.

B2: bubble DNA (structured_DNA)
DNA 1: GCTTTAACTTACATACCCCCCCCCCTAGTATGCGTATTGC
DNA 2: GCAATACGCATACTATTTTTTTTTTTATGTAAGTTAAAGC
Turning to B2, the equilibrium dissociation constant (Kd) with CMD1 [3] (bubble) was ~1380 nM.

B3: dsDNA8 (10-30 bp) (dsDNA)
DNA 1: ACTTACTGCCAATATAGTAT
DNA 2: ATACTATATTGGCAGTAAGT
As to B3, the Kd with CMD1 [4] is ~1930 nM.

B4: Y-DNA (structured_DNA)
DNA 1: GCTTTAACTTACATAAATGCCAATATAGTATGCGTATTGC
DNA 2: TACCGCATACGCCTATATTGGCATTTATGTAAGTTAAAGC
B4: the Kd with CMD1 [3] (fork) is ~1380 nM.

B5: 5'-flap DNA (structured_DNA)
DNA 1: GCTTTAACTTACATAAATGCCAATATAGTATGCGTATTGC
DNA 2: TACCGCATACGCCTATATTGGCATTTATGTAAGTTAAAGC
DNA 3: GCAATACGCATA
Consider B5, for which the dissociation constant (Kd) with CMD1 [3] (5' flap) is ~1380 nM.

B6: dsDNA1 (40 bp, AT-rich) (dsDNA)
DNA 1: GCTTTAACTTACATAAATGCCAATATAGTATGCGTATTGC
DNA 2: GCAATACGCATACTATATTGGCATTTATGTAAGTTAAAGC
As to B6, the Kd with CMD1 [1] is ~2220 nM.

B7: dsDNA5 (40 bp, 5mC) (dsDNA)
DNA 1: GCTTTAACTTACATAAATGCCAATATAGTATGCGTATTGC
DNA 2: GCAATACGCATACTATATTGGCATTTATGTAAGTTAAAGC
modifications: one or two 5mC
Take B7: in the data set with CMD1 [5], the Kd is ~2400 nM.

B8: 3'-flap DNA (structured_DNA)
DNA 1: GCTTTAACTTACATAAATGCCAATATAGTATGCGTATTGC
DNA 2: TACCGCATACGCCTATATTGGCATTTATGTAAGTTAAAGC
DNA 3: GCGTATGCGGTA
Take B8: the dissociation constant (Kd) with CMD1 [3] (3' flap) is ~1380 nM.

B9: dsDNA6 (40 bp, 5mC) (dsDNA)
DNA 1: GCTTTAACTTACATAAATGCCAATATAGTATGCGTATTGC
DNA 2: GCAATACGCATACTATATTGGCATTTATGTAAGTTAAAGC
modifications: one or two 5mC
For the molecule B9, the Kd with CMD1 [5] is ~2400 nM.

B10: dsDNA9 (10-30 bp) (dsDNA)
DNA 1: AACTTACATAAATGCCAATATAGTATGCGT
DNA 2: ACGCATACTATATTGGCATTTATGTAAGTT
Turning to B10, the Kd with CMD1 [4] was ~1930 nM.

B11: 14-nt DNA (crystal), unmodified (dsDNA)
DNA 1: CCCGCGCGGGATGT
DNA 2: CCCGCGCGGGATGT
Take B11: in the data set with MBP-CMD1 [6], the binding result is on record as “binds”.

B12: dsDNA2 (40 bp, AT-rich) (dsDNA)
DNA 1: ATACTTACGAATCTGAACTTAGATCCTAATATACATTCTA
DNA 2: TAGAATGTATATTAGGATCTAAGTTCAGATTCGTAAGTAT
As to B12, the Kd with CMD1 [1] is ~2220 nM.

B13: 14-nt 5mC-DNA (BLI) (dsDNA)
DNA 1: CCCGCGCGGGATGT
DNA 2: CCCGCGCGGGATGT
modifications: 5mC at position 3 of both strands
Consider B13, for which the Kd in the data set with CMD1 [2] (10 bp palindromic duplex, 3' overhang 4 nt on both strands) amounted to 2010 ± 110 nM; in the data set with MBP-CMD1 [7], 810 ± 30 nM.

B14: dsDNA3 (40 bp, GC-rich) (dsDNA)
DNA 1: GCTGGCCCTGACATGGGTGCCAGCGTAGTGCGCGTAGCGC
DNA 2: GCGCTACGCGCACTACGCTGGCACCCATGTCAGGGCCAGC
Regarding B14, the Kd in the data set with CMD1 [1] is ~2220 nM.
